Reference: patent publication US20240101663A1 (BIOTROY THERAPEUTICS, published 2024)

B1: CCDC112 recombinant protein (coiled-coil domain-containing protein 112) (ligand)
chain: MEKDKHSHFYNQKSDFRIEHSMLEELENKLIHSRKTERAKIQQQLAKIHNNVKKLQHQLKDVKPTPDFVEKLREMMEEIENAINTFKEEQRLIYEELIKEEKTTNNELSAISRKIDTWALGNSETEKAFRAISSKVPVDKVTPSTLPEEVLDFEKFLQQTGGRQGAWDDYDHQNFVKVRNKHKGKPTFMEEVLEHLPGKTQDEVQQHEKWYQKFLALEERKKESIQIWKTKKQQKREEIFKLKEKADNTPVLFHNKQEDNQKQKEEQRKKQKLAVEAWKKQKSIEMSMKCASQLKEEEEKEKKHQKERQRQFKLKLLLESYTQQKKEQEEFLRLEKEIREKAEKAEKRKNAADEISRFQERDLHKLELKILDRQAKEDEKSQKQRRLAKLKEKVENNVSRDPSRLYKPTKGWEERTKKIGPTGSGPLLHIPHRAIPTWRQGIQRRV
notes: also called CCDC112 protein; full-length CCDC112 protein
B2: monoclonal antibody S-78-02 (antibody, V domains shown)
VH: QVQLQQSGPELVKPGASVKIPCKTSGYSFTDYNIDWVKQGLGESLEWIGDINPNYGGTMYNQKFKGKATLTVDKSSNTAYMELRSLTSEDTAVYYCAHDEFIYWGQGTLVTVSA
VL: DIQMNQSPSSMFASLGERVTITCRASQDINTYLSWIQRKPGKSPKTLIYRANRLVDGVPSRFSGSGSGQDYSLTISSLEYEDMGIYYCLQYDEFPHTFGGGTKLEIK
notes: Mouse hybridoma monoclonal antibody raised against CCDC112 protein and detected with an anti-mouse secondary antibody; also called CCDC112 antibody; CCDC112 monoclonal antibody

Assays:
[1] = molecular target: T1, LTBR-hFc (LTBR extracellular region protein fragment labeled with hFc) (UniProt P36941 31-227); experiment: ELISA at pH 5.5, coated CCDC112 gradient, LTBR-hFc 0.5 µg/mL; table gives no unit, unit from the x axis; target from the plot title (legend names CD30)
T1 construct: extracellular domain; Bought from ACRO Biosystems or Sino Biological; also called lymphotoxin-beta receptor; TNFRSF3
T1 sequence (P36941 31-227): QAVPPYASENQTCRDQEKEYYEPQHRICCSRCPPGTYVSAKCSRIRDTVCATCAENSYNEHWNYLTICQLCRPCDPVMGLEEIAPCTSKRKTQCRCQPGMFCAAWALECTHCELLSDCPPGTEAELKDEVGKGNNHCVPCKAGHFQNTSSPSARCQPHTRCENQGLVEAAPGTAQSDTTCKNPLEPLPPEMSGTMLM
Experimental: (§1) Specifically, a special plate for ELISA (costar, ME, USA) was used. Firstly, different concentrations of CCDC112 recombinant proteins were dissolved in 100 μL of ELISA coating solution (Solarbio, Beijing, China) to coat the plate, and the negative control was coated with 100 μL of coating solution without protein. The plate was coated overnight at 4° C. After washing with PBST, 100 μL of 5% BSA dissolved in PBS (VWR, PA, USA) was used for blocking in the incubator at 37° C. for 90 min. […] The above-mentioned receptor protein was labeled with hFc (P-Fc) and binding was carried out in the incubator at 37° C. for 60 min. After washing with PBST, a specific anti-human Fc fragment antibody (Abcam, MA, USA) diluted in PBS was used for incubation and binding at 37° C. for 30 min. After washing with PBST, chromogenic solution (Sangon, Shanghai, China) was added at 100 μL per well for color development and reacted in an incubator for 5-30 min, and then 50 μL of stop solution (Sangon, Shanghai, China) was added, and chromogenic reading was then carried out under a microplate reader (Thermo Fisher, MA, USA) at 450 nm.

[2] = molecular target: T2, CD30 extracellular region protein fragment labeled with hFc (UniProt P28908 19-385); experiment: ELISA at pH 6.5, coated CCDC112 gradient, CD30-hFc 0.5 µg/mL; table gives no unit, unit from the x axis; target from the plot title (legend names LTBR)
T2 construct: extracellular domain; Bought from ACRO Biosystems or Sino Biological; not shown: human Fc label (hFc)
T2 sequence (looked up): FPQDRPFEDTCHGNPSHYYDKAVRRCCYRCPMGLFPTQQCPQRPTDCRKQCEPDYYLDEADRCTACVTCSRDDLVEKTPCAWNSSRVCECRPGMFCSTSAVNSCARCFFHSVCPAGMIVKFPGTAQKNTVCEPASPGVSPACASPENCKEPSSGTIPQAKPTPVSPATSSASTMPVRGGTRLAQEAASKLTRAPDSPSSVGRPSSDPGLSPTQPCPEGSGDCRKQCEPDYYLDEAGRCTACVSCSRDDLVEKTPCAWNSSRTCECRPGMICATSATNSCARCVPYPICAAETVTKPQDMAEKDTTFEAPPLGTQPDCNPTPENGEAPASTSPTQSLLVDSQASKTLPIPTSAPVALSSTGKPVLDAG
Experimental: as §1

[3] = molecular target: T2, CD30 extracellular region protein …; experiment: ELISA at pH 7, coated CCDC112 gradient, CD30-hFc 0.5 µg/mL; value lies above the highest concentration shown, curve has no plateau; table gives no unit, unit from the x axis; target from the plot title (legend names LTBR)
Experimental: as §1

[4] = molecular target: T1, LTBR-hFc (LTBR extracellular region …); experiment: ELISA at pH 6.5, coated CCDC112 gradient, LTBR-hFc 0.5 µg/mL; table gives no unit, unit from the x axis; target from the plot title (legend names CD30)
Experimental: as §1

[5] = molecular target: T2, CD30 extracellular region protein …; experiment: ELISA at pH 6, coated CCDC112 gradient, CD30-hFc 0.5 µg/mL; table gives no unit, unit from the x axis; target from the plot title (legend names LTBR)
Experimental: as §1

[6] = molecular target: T2, CD30 extracellular region protein …; experiment: ELISA at pH 5.5, coated CCDC112 gradient, CD30-hFc 0.5 µg/mL; table gives no unit, unit from the x axis; target from the plot title (legend names LTBR)
Experimental: as §1

[7] = molecular target: T1, LTBR-hFc (LTBR extracellular region …); experiment: ELISA at pH 6, coated CCDC112 gradient, LTBR-hFc 0.5 µg/mL; table gives no unit, unit from the x axis; target from the plot title (legend names CD30)
Experimental: as §1

[8] = molecular target: T1, LTBR-hFc (LTBR extracellular region …); experiment: ELISA at pH 7.5, coated CCDC112 gradient, LTBR-hFc 0.5 µg/mL; ambiguous fit far outside the range shown, curve nearly flat; table gives no unit, unit from the x axis; target from the plot title (legend names CD30)
Experimental: as §1

[9] = molecular target: B1; experiment: ELISA, coated full-length CCDC112 protein, antibody titrated; table gives no unit, unit from the x axis Ab(nM)
[10] = molecular target: T3, CCDC112 on HCT116 tumor cells (including HCT116 cells stably overexpressing CCDC112) (human, UniProt Q8NEF3 1-446); experiment: flow cytometry on HCT116 cells overexpressing CCDC112; table gives no unit, unit from the x axis 'Abs conc. nM'
T3 construct: also called CCDC112 on the surface of tumor cells; HCT116-CCDC112
T3 sequence: B1 chain
Experimental: Further, the specific binding of the CCDC112 antibody to the antigen was verified by flow cytometry. The HCT116 cell line overexpressing CCDC112 was constructed by stable transfection of liposome, and the cells and the CCDC112 antibody were co-incubated, the unbound antibody was washed away, and then the anti-mouse secondary antibody (FITC modified) was used for flow cytometry and the percentage of cells that stain positive was analyzed.

[11] = molecular target: B1; experiment: bio-layer interferometry (ProbeLife Gator), antibody (200 nM) immobilized, antigen 15 nM to 1.875 nM
Experimental: The dissociation constant (KD) of the antibody of the invention binding to human CCDC112 was determined using bio-layer interferometry on ProbeLife Gator according to conventional procedures.

| EC50 [1] [µg/mL] | EC50 [2] [µg/mL] | EC50 [3] [µg/mL] | EC50 [4] [µg/mL] | EC50 [5] [µg/mL] | EC50 [6] [µg/mL] | EC50 [7] [µg/mL] | EC50 [8] [µg/mL] | EC50 [9] [nM] | EC50 [10] [nM] | Kd [11] [nM] | Binder |
| --- | --- | --- | --- | --- | --- | --- | --- | --- | --- | --- | --- |
| 0.922 | 4.61 | 16.1 | 1.94 | 1.91 | 2.11 | 1.26 | ~18100 |  |  |  | B1 |
|  |  |  |  |  |  |  |  | 0.0644 | 0.98 | 0.468 | B2 |
